The supplement of paper PMC9112550, “Optimization of the antimicrobial peptide Bac7 by deep mutational scanning” (BMC Biology, 2022)

What follows are sequences tested on Escherichia coli TOP10 (assay: shrunken log2 fold change of peptide-encoding DNA abundance (4.5 h post-induction vs induction); higher = less antimicrobial activity (less host growth inhibition)). Conditions: time post-induction: 4.5 h; library: site-saturation at positions 5, 18, 19, 20.
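Further: peptides expressed intracellularly from a pBAD plasmid library in pooled LB shake-flask culture, induced with 0.3% L-arabinose, DNA abundance read by NGS, three biological replicates, DESeq2 with apeglm shrinkage.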

Sequence | shrunken log2 fold change
RRIRFRPPRLPRPRPRPEPAPRP | 0.669
RRIRFRPPRLPRPRPRPEPMPRP | -0.278
RRIRFRPPRLPRPRPRPEQEPRP | -0.159
RRIRFRPPRLPRPRPRPERCPRP | 0.104
RRIRFRPPRLPRPRPRPERNPRP | -0.184
RRIRFRPPRLPRPRPRPESCPRP | -0.141
RRIRFRPPRLPRPRPRPEVPPRP | -0.0248
RRIRFRPPRLPRPRPRPEWRPRP | 0.531
RRIRFRPPRLPRPRPRPEYSPRP | 5.84e-05
RRIRFRPPRLPRPRPRPFCAPRP | -0.102
RRIRFRPPRLPRPRPRPFCVPRP | -0.722
RRIRFRPPRLPRPRPRPFDSPRP | -0.22
RRIRFRPPRLPRPRPRPFECPRP | -0.0767
RRIRFRPPRLPRPRPRPFEQPRP | -0.311
RRIRFRPPRLPRPRPRPFFPPRP | 0.386
RRIRFRPPRLPRPRPRPFGEPRP | 0.135
RRIRFRPPRLPRPRPRPFGKPRP | -0.00111
RRIRFRPPRLPRPRPRPFHPPRP | 0.039
RRIRFRPPRLPRPRPRPFHSPRP | -0.0346
RRIRFRPPRLPRPRPRPFILPRP | -0.749
RRIRFRPPRLPRPRPRPFINPRP | -0.874
RRIRFRPPRLPRPRPRPFIVPRP | -0.772
RRIRFRPPRLPRPRPRPFIYPRP | -0.714
RRIRFRPPRLPRPRPRPFKWPRP | -0.269
RRIRFRPPRLPRPRPRPFKYPRP | -1.26

Sequence | shrunken log2 fold change
RRIRFRPPRLPRPRPRPFLCPRP | -0.313
RRIRFRPPRLPRPRPRPFLFPRP | -0.457
RRIRFRPPRLPRPRPRPFLLPRP | -0.696
RRIRFRPPRLPRPRPRPFLNPRP | -0.484
RRIRFRPPRLPRPRPRPFMGPRP | -0.348
RRIRFRPPRLPRPRPRPFNDPRP | 0.00352
RRIRFRPPRLPRPRPRPFNIPRP | -0.429
RRIRFRPPRLPRPRPRPFNYPRP | -0.183
RRIRFRPPRLPRPRPRPFPCPRP | -0.151
RRIRFRPPRLPRPRPRPFPVPRP | -0.0374
RRIRFRPPRLPRPRPRPFPWPRP | -0.211
RRIRFRPPRLPRPRPRPFQAPRP | -0.91
RRIRFRPPRLPRPRPRPFVEPRP | -0.27
RRIRFRPPRLPRPRPRPFYFPRP | -0.681
RRIRFRPPRLPRPRPRPGADPRP | 0.187
RRIRFRPPRLPRPRPRPGAVPRP | 0.223
RRIRFRPPRLPRPRPRPGCSPRP | -0.0796
RRIRFRPPRLPRPRPRPGDEPRP | 0.0387
RRIRFRPPRLPRPRPRPGDSPRP | -0.305
RRIRFRPPRLPRPRPRPGEDPRP | -0.224
RRIRFRPPRLPRPRPRPGFTPRP | -0.187
RRIRFRPPRLPRPRPRPGGGPRP | 0.727
RRIRFRPPRLPRPRPRPGGYPRP | 0.0294
RRIRFRPPRLPRPRPRPGHYPRP | -0.205
RRIRFRPPRLPRPRPRPGIGPRP | -0.0363

Sequence | shrunken log2 fold change
RRIRFRPPRLPRPRPRPGIRPRP | -0.136
RRIRFRPPRLPRPRPRPGKGPRP | -0.159
RRIRFRPPRLPRPRPRPGKKPRP | 0.0937
RRIRFRPPRLPRPRPRPGKMPRP | -0.0519
RRIRFRPPRLPRPRPRPGLPPRP | 0.255
RRIRFRPPRLPRPRPRPGMHPRP | -0.24
RRIRFRPPRLPRPRPRPGMRPRP | 0.44
RRIRFRPPRLPRPRPRPGNYPRP | -0.401
RRIRFRPPRLPRPRPRPGQTPRP | 0.0249
RRIRFRPPRLPRPRPRPGRFPRP | -0.223
RRIRFRPPRLPRPRPRPGRRPRP | 0.334
RRIRFRPPRLPRPRPRPGSHPRP | -0.225
RRIRFRPPRLPRPRPRPGSSPRP | -0.0565
RRIRFRPPRLPRPRPRPGTMPRP | -0.494
RRIRFRPPRLPRPRPRPGTWPRP | -0.153
RRIRFRPPRLPRPRPRPGVQPRP | 0.119
RRIRFRPPRLPRPRPRPGWHPRP | 0.277
RRIRFRPPRLPRPRPRPGYFPRP | -0.278
RRIRFRPPRLPRPRPRPHAPPRP | -0.062
RRIRFRPPRLPRPRPRPHARPRP | 0.285
RRIRFRPPRLPRPRPRPHCEPRP | -0.0995
RRIRFRPPRLPRPRPRPHDMPRP | -0.292
RRIRFRPPRLPRPRPRPHEWPRP | -0.0176
RRIRFRPPRLPRPRPRPHFHPRP | -0.75
RRIRFRPPRLPRPRPRPHFYPRP | -0.38

Sequence | shrunken log2 fold change
RRIRFRPPRLPRPRPRPHGIPRP | -0.00151
RRIRFRPPRLPRPRPRPHGQPRP | -0.0526
RRIRFRPPRLPRPRPRPHKEPRP | -0.203
RRIRFRPPRLPRPRPRPHMDPRP | -1.29
RRIRFRPPRLPRPRPRPHMIPRP | -0.395
RRIRFRPPRLPRPRPRPHNIPRP | -0.501
RRIRFRPPRLPRPRPRPHNKPRP | 0.0525
RRIRFRPPRLPRPRPRPHNWPRP | -0.122
RRIRFRPPRLPRPRPRPHQEPRP | -0.0079
RRIRFRPPRLPRPRPRPHSHPRP | -0.939
RRIRFRPPRLPRPRPRPHSIPRP | -0.248
RRIRFRPPRLPRPRPRPHSMPRP | -0.328
RRIRFRPPRLPRPRPRPHSTPRP | -0.0436
RRIRFRPPRLPRPRPRPHTFPRP | -0.778
RRIRFRPPRLPRPRPRPHVGPRP | -0.224
RRIRFRPPRLPRPRPRPHVRPRP | -0.271
RRIRFRPPRLPRPRPRPHVWPRP | 0.491
RRIRFRPPRLPRPRPRPHWMPRP | -0.457
RRIRFRPPRLPRPRPRPHWNPRP | -0.653
RRIRFRPPRLPRPRPRPHWTPRP | -0.301
RRIRFRPPRLPRPRPRPIAVPRP | -0.116
RRIRFRPPRLPRPRPRPIDVPRP | -0.146
RRIRFRPPRLPRPRPRPIEFPRP | 0.0129
RRIRFRPPRLPRPRPRPIEGPRP | 0.0922
RRIRFRPPRLPRPRPRPIGRPRP | 0.00988

Sequence | shrunken log2 fold change
RRIRFRPPRLPRPRPRPIGTPRP | -0.329
RRIRFRPPRLPRPRPRPIHNPRP | -0.745
RRIRFRPPRLPRPRPRPIHQPRP | -0.237
RRIRFRPPRLPRPRPRPIIQPRP | -0.786
RRIRFRPPRLPRPRPRPIKIPRP | -0.539
RRIRFRPPRLPRPRPRPILNPRP | -0.692
RRIRFRPPRLPRPRPRPILTPRP | -0.689
RRIRFRPPRLPRPRPRPIMLPRP | -0.205
RRIRFRPPRLPRPRPRPINFPRP | -0.601
RRIRFRPPRLPRPRPRPINNPRP | -0.683
RRIRFRPPRLPRPRPRPINTPRP | -0.761
RRIRFRPPRLPRPRPRPISIPRP | -0.697
RRIRFRPPRLPRPRPRPISTPRP | -0.24
RRIRFRPPRLPRPRPRPISWPRP | -0.132
RRIRFRPPRLPRPRPRPITGPRP | -0.107
RRIRFRPPRLPRPRPRPITRPRP | 0.114
RRIRFRPPRLPRPRPRPITVPRP | -0.177
RRIRFRPPRLPRPRPRPIVTPRP | -0.075
RRIRFRPPRLPRPRPRPIWEPRP | -0.0122
RRIRFRPPRLPRPRPRPIWWPRP | 0.617
RRIRFRPPRLPRPRPRPKADPRP | -0.0989
RRIRFRPPRLPRPRPRPKCAPRP | -0.0345
RRIRFRPPRLPRPRPRPKDSPRP | -0.335
RRIRFRPPRLPRPRPRPKDWPRP | 0.233
RRIRFRPPRLPRPRPRPKFFPRP | -0.00377

Sequence | shrunken log2 fold change
RRIRFRPPRLPRPRPRPKFSPRP | -0.0365
RRIRFRPPRLPRPRPRPKGCPRP | 0.418
RRIRFRPPRLPRPRPRPKHEPRP | 0.286
RRIRFRPPRLPRPRPRPKHPPRP | 0.194
RRIRFRPPRLPRPRPRPKIEPRP | -0.202
RRIRFRPPRLPRPRPRPKKCPRP | 0.107
RRIRFRPPRLPRPRPRPKKIPRP | -0.028
RRIRFRPPRLPRPRPRPKLSPRP | -0.258
RRIRFRPPRLPRPRPRPKLTPRP | -0.069
RRIRFRPPRLPRPRPRPKLWPRP | 0.287
RRIRFRPPRLPRPRPRPKMNPRP | -0.345
RRIRFRPPRLPRPRPRPKNQPRP | -0.195
RRIRFRPPRLPRPRPRPKPCPRP | 0.3
RRIRFRPPRLPRPRPRPKQLPRP | -0.123
RRIRFRPPRLPRPRPRPKQMPRP | 0.382
RRIRFRPPRLPRPRPRPKQQPRP | 0.146
RRIRFRPPRLPRPRPRPKRGPRP | 0.0365
RRIRFRPPRLPRPRPRPKSIPRP | -0.0406
RRIRFRPPRLPRPRPRPKSNPRP | -0.358
RRIRFRPPRLPRPRPRPKTNPRP | 0.0585
RRIRFRPPRLPRPRPRPKTRPRP | 0.277
RRIRFRPPRLPRPRPRPKVAPRP | 0.192
RRIRFRPPRLPRPRPRPKVNPRP | -0.266
RRIRFRPPRLPRPRPRPKVQPRP | 0.199
RRIRFRPPRLPRPRPRPKYQPRP | -0.534
